Read-outs that look alike come from different tables or passages of the source.
Assays:
human Notch1 = molecular target: T1, human Notch1 (Homo sapiens, UniProt P46531); test: FACS binding to transiently transfected HEK-293 cells, human Notch1
T1 construct: expressed in transfected cells; host or cells: HEK-293, transient, co-transfected with GFP
Experimental: (§1) The ability of the 59R1 IgG2 antibody to cross-react with other Notch receptors was determined by FACS assay using HEK-293 cells transiently transfected with the human Notch1, Notch2, Notch3 or Notch4 expression plasmid and green fluorescent protein (GFP) as a transfection control. GFP positive cells indicated expression of the transgene. The 59R1 IgG2 was added to the cells at 2 μg/ml and detected by PE-conjugated goat anti-human Fc gamma specific (Jackson Immunochemicals). All Notch constructs were full length.
(§2) The binding epitope of 59R5 was determined. As was described in Example 3 for analysis of antibody 59R1, several point mutants were created within full-length Notch1, converting residues within EGF10 to the corresponding amino acids in human Notch 2. Mutants in full-length Notch sequences were generated by QuikChange® mutagenesis (Stratagene) and verified by sequencing. HEK 293 cells were transiently transfected with expression vectors encoding human Notch2, human Notch1, or human Notch1 with residues 382-386 mutated to the corresponding human Notch2 residues. Cells were also co-transfected with a plasmid encoding green fluorescent protein (GFP) to mark those cells that received transfected plasmid. […] 59R1 and 59R5 were detected by PE-conjugated goat anti-human Fc gamma specific antibody (Jackson Immunochemicals, #109-116-170). […]

mNotch1 = molecular target: T2, mNotch1 (Mus musculus, UniProt Q01705); test: Biacore affinity, mouse Notch1; format: binding
T2 construct: recombinant human and mouse Notch proteins (EGF10-15 for Notch1, 2, & 4; EGF9-14 for Notch3) were immobilized on a CM5 chip
T2 sequence (Q01705 372-601 limits assumed): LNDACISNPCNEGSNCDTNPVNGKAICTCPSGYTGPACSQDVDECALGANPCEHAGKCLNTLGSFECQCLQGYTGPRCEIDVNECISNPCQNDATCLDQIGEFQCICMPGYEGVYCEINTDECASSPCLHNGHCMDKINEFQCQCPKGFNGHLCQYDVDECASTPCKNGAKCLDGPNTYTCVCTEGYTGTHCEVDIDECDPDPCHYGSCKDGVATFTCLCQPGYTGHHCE
Experimental: (§3) The affinities for human and mouse Notch1, Notch2, Notch3, and Notch4 were determined using a Biacore 2000 instrument. Briefly, recombinant human and mouse Notch proteins (EGF10-15 for Notch1, 2, & 4; EGF9-14 for Notch3) were immobilized on a CM5 chip using standard amine based chemistry (NHS/EDC). For hNotch2, EGF1-12 was also tested for binding. Different antibody concentrations (1-100 nM) were injected over the protein surfaces and kinetic data were collected over time. The data was fit using the simultaneous global fit equation to yield dissociation constants (KD, nM) for each Notch (Table 3).
(§4) The sequences of the heavy chain and light chain are provided in SEQ ID NO: 49 and SEQ ID NO:18, respectively. The heavy chain variable region is provided in SEQ ID NO:50 and the light chain variable region is provide SEQ ID NO:13. The heavy chain CDR3 sequence of 59R5 comprises SIFYTT, SEQ ID NO:51. The other CDR sequences of 59R5 are identical to 59R1. […] Both antibodies bind human and murine Notch2 and Notch3 receptors with sub-nanomolar affinity (see Table 6).

hNotch1 = molecular target: T3, hNotch1 (Homo sapiens, UniProt P46531); test: Biacore affinity, human Notch1; format: binding; conditions: Table 6, Biacore; read-out: IgG Dissociation Constant (KD) h-Notch1
T3 construct: recombinant human and mouse Notch proteins (EGF10-15 for Notch1, 2, & 4; EGF9-14 for Notch3) were immobilized on a CM5 chip
Experimental: as §3, §4

[1] = test system: PN8 pancreatic tumor cells; test: PN8 pancreatic tumor xenograft growth; format: in vivo, NOD/SCID mice; conditions: for PN8 Tumor vol relative to the control group: combination with gemcitabine, control is gemcitabine alone, antibody 15 mg/kg once per week
Experimental: The 59R1 IgG2 antibody was also tested in vivo in the breast tumor xenograft lines OMP-B34, OMP-B39, OMP-B44, PE13, and UM-T1, the pancreas tumor xenograft line OMP-PN8, and the colon tumor xenograft line OMP-C8. These tumor xenograft lines were established by adhering to procedures described in Al-Hajj et al., 2003, Proc. Natl. Acad. Sci. USA, 100:3983-3988. Female NOD/SCID immuno-compromised mice 7-10 weeks old were used for the establishment of the breast tumor xenografts and male NOD/SCID mice were used for the OMP-Pn8 and OMP-C8 tumor-models (Harlan, Indianapolis, Ind.). The 59R1 IgG2 antibody was also tested in vivo in a Colo-205 colon tumor xenograft model. Female immunodeficient bg/nu XID mice on a Swiss CD-1 background were used for the Colo-205 xenograft tumor model. In case of the breast cancer models, slow-releasing estrogen pellets (0.36 mg) had to be implanted. Mice were subcutaneously injected on the right flank with 50,000 (OMP-B34, OMP-B39, OMP-B44, PE13, and UM-T1) or 1×10^7 (Colo-205) viable cells, respectively, in a mixture of PBS (without magnesium or calcium) and Matrigel at a 1:1 ratio. The injected total volume per mouse was 200 μl with 50% being Matrigel. Once the tumor had reached a size between 65-200 mm^3, the mice were randomized. Antibodies were administered weekly and tumors measured twice weekly. LZ1 (a human antibody that recognizes lyzozyme) or 1B711 (a murine IgG1 antibody that recognizes the hapten trinitrophenol) was used as a control antibody for treatment of each tumor type. Tumor volume was calculated as described Al-Hajj et al. (2003). Data are expressed as the mean and the mean±S.E.M. Group means were compared using Student's two-tailed, unpaired t-test. […] All statistical analysis was performed using Microsoft EXCEL and Graph Pad PRISM.
In one embodiment, NOD/SCID mice were injected with PN8 pancreatic tumor cells. The tumors were allowed to grow for approximately 33 days until they had reached an average tumor volume of 150 mm^3. The mice were treated with gemcitabine at 20 mg/kg once per week for four weeks in combination with control antibody, anti-Notch2/3 antibody 59R1, or anti-Notch2/3 antibody 59R5.
Tumor volumes and p values for each experiment are shown relative to the control group. The PE13, C28 and Colo205 studies were carried out as described in Example 14. PN8 studies were carried out as described above. For the PN8 experiment, the control is gemcitabine alone and values for 59R1 and 59R5 are the combinations with gemcitabine. Antibodies were dosed once per week at 15 mg/kg for all experiments.

human Notch2 = human Notch2 (Homo sapiens, UniProt Q04721); test: FACS binding to transiently transfected HEK-293 cells, human Notch2; set-up: expressed in transfected cells; host or cells: HEK-293, stably transfected
Experimental: as §1, §2

[2] = Table 6, Biacore, read-out: IgG Dissociation Constant (KD) m-Notch1

T1 sequence (P46531 19-2555): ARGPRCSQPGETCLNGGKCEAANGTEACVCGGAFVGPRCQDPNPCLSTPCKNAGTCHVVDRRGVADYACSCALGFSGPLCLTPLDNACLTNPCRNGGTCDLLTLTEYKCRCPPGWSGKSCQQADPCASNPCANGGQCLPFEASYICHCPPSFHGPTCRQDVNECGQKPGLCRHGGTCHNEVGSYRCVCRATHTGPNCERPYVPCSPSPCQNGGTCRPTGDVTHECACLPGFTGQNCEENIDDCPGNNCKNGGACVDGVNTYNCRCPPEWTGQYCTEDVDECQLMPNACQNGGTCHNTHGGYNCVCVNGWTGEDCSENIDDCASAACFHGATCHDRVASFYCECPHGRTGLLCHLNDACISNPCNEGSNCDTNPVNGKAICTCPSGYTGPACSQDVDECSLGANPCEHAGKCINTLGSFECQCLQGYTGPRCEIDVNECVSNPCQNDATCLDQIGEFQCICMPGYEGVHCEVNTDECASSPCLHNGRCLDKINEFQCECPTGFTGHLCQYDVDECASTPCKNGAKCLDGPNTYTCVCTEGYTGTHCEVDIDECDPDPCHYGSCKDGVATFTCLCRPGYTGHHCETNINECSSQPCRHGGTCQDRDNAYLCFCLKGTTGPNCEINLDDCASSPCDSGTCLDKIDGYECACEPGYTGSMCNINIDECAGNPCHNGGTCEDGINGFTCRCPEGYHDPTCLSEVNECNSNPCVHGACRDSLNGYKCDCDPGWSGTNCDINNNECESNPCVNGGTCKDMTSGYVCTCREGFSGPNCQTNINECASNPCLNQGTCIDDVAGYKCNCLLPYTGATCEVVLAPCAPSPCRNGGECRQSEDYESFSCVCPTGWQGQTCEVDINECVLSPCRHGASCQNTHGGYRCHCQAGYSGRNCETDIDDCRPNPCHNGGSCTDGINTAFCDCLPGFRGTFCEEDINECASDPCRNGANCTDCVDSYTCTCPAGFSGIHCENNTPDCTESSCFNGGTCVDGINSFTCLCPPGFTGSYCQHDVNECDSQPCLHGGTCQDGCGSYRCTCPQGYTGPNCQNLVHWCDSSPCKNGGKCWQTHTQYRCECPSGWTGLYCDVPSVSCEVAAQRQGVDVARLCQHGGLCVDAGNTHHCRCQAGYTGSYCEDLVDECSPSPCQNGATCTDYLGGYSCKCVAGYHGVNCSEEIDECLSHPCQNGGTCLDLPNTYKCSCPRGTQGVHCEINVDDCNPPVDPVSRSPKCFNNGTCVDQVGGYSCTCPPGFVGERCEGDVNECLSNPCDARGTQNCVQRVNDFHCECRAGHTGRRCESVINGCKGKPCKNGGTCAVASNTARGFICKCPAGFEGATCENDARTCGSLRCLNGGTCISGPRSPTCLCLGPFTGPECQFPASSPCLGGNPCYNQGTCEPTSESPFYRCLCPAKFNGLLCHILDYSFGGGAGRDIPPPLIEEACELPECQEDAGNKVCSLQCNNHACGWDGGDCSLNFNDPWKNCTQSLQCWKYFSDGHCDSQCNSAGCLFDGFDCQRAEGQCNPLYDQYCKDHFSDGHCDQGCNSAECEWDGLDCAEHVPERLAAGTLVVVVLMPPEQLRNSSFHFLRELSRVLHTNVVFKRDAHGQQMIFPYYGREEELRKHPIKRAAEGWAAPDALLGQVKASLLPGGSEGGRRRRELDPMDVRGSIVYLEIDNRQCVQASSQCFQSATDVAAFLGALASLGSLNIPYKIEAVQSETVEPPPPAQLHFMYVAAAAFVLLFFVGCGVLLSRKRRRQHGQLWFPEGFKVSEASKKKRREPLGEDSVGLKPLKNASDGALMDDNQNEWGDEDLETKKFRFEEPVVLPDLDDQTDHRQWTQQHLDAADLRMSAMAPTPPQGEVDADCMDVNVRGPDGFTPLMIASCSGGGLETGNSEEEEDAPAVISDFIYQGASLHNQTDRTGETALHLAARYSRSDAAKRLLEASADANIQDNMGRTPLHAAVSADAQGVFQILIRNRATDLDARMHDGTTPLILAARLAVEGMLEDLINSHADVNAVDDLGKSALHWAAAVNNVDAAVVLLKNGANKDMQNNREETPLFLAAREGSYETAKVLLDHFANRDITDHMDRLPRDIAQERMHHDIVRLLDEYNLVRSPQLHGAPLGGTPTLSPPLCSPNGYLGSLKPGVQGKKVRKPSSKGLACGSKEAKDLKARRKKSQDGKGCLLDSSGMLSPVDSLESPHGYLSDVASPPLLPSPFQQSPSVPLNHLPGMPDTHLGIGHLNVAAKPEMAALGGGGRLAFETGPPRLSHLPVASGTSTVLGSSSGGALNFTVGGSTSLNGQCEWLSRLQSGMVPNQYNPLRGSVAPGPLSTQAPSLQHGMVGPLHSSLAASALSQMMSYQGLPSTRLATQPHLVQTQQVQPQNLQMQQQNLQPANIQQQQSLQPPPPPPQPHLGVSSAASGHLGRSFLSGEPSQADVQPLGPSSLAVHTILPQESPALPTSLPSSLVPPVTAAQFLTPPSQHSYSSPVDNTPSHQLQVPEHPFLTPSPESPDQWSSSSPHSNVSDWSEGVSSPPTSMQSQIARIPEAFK
Chain of human Notch2 (Q04721 26-2471): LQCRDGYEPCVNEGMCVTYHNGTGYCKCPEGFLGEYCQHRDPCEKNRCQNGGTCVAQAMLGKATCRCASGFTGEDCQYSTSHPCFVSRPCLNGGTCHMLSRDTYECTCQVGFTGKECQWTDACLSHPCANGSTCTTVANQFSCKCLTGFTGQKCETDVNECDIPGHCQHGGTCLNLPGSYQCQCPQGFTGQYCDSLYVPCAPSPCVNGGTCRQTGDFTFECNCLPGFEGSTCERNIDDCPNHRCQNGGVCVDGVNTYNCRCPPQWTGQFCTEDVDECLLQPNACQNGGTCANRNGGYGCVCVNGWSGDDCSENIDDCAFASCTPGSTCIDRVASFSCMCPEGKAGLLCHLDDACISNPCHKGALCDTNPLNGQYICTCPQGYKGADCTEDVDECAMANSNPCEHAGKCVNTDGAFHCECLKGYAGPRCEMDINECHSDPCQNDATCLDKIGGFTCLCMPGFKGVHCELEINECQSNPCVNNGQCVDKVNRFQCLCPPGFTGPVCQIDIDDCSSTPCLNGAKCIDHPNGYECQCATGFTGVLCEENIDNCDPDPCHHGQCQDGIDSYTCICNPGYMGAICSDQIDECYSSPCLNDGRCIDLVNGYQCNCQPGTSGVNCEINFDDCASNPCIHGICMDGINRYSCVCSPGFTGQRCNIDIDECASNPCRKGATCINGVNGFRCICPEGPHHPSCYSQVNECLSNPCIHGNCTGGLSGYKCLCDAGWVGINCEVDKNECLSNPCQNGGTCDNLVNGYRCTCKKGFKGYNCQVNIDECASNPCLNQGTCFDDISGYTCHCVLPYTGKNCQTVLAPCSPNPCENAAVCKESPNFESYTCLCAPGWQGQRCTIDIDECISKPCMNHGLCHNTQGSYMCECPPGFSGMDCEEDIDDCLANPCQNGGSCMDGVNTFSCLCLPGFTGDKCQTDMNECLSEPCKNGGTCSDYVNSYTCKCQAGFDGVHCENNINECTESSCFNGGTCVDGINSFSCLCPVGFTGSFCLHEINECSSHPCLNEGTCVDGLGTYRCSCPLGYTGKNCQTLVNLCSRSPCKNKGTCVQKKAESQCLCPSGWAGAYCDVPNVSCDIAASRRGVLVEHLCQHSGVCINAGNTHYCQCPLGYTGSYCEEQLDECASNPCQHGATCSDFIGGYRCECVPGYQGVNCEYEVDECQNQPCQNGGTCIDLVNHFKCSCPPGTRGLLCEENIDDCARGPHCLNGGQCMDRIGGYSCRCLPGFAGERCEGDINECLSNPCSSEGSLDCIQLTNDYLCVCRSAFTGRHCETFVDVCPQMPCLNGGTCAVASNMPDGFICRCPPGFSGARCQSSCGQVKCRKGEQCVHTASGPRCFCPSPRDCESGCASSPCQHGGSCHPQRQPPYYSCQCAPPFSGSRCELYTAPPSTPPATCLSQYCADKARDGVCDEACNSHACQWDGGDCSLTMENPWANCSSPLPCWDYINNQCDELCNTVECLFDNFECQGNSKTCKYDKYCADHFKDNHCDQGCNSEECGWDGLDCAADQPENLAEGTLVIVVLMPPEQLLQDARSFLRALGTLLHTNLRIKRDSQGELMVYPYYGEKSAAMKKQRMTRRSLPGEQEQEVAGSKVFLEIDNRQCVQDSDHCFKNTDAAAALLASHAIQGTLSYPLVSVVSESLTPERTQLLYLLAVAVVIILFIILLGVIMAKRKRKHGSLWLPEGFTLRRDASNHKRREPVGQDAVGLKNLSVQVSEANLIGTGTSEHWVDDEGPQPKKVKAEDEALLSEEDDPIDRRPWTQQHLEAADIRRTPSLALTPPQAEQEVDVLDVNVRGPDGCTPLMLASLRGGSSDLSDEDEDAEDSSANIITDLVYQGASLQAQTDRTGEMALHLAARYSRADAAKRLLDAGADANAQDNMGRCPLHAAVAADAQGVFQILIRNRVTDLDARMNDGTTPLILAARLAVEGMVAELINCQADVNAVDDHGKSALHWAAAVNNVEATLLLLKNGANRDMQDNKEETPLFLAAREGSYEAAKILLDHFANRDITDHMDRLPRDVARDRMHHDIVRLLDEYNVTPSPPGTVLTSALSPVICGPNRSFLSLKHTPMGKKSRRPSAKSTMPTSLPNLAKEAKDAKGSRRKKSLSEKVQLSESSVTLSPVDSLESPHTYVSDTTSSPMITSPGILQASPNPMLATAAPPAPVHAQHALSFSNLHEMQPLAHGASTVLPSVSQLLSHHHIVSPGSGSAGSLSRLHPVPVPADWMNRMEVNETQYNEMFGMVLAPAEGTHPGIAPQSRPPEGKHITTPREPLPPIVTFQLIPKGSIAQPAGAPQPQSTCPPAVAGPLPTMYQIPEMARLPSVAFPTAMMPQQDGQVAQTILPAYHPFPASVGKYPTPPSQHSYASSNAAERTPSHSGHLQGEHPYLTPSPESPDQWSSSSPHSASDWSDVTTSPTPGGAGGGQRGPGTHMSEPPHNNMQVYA

Row | binding to full-length human Notch1 (FACS) (human Notch1) | Kd (mNotch1; Table 3, Biacore, EGF10-15, read-out: Dissociation Constant (KD) mNotch1) [nM] | Kd (mNotch1; [2]) [nM] | Kd (hNotch1) [nM] | binding to full-length human Notch2 (FACS) (human Notch2) | Substance | PN8 Tumor vol relative to the control group [1] | PN8 pancreatic tumor growth relative to control antibody ([1]; established tumors, 15 mg/kg once a week) | PN8 tumor growth, antibody in combination with gemcitabine ([1]; gemcitabine 20 mg/kg once per week for four weeks)
1 | does not bind significantly | > 10 | > 10 | > 10 | specifically binds | 59R1: human IgG2 antibody binding Notch2 and Notch3; heavy and light chain SEQ ID NO:16 and 18; ATCC PTA-9547 | 0.27 | inhibit pancreatic tumor growth | –
2 | did not bind | – | > 10 | > 10 | bound | 59R5: human antibody that specifically binds human Notch 2 and human Notch 3; heavy and light chain SEQ ID NO:49 and 18; ATCC PTA-10170 | 0.11 | – | inhibited tumor growth at a similar level as antibody 59R1

From patent publication US8226943B2, “Antibodies to notch receptors” (OncoMed Pharmaceuticals, Inc., priority 2008, dated 2012)
